This data set is described as follows: crystallisation trials. The note with it: glycan lost; control: wild type.

B1: human lysosomal acid lipase (HLAL): enzymatically deglycosylated (protein)
parent chain: MKMRFLGLVVCLVLWTLHSEGSGGKLTAVDPETNMNVSEIISYWGFPSEEYLVETEDGYILCLNRIPHGRKNHSDKGPKPVVFLQHGLLADSSNWVTNLANSSLGFILADAGFDVWMGNSRGNTWSRKHKTLSVSQDEFWAFSYDEMAKYDLPASINFILNKTGQEQVYYVGHSQGTTIGFIAFSQIPELAKRIKMFFALGPVASVAFCTSPMAKLGRLPDHLIKDLFGDKEFLPQSAFLKWLGTHVCTHVILKELCGNLCFLLCGFNERNLNMSRVDVYTTHSPAGTSVQNMLHWSQAVKFQKFQAFDWGSSAKNYFHYNQSYPPTYNVKDMLVPTAVWSGGHDWLADVYDVNILLTQITNLVFHESIPEWEHLDFIWGLDAPWRLYNKIINLMRKYQ
Regarding B1, the “other: crystallisability” value is recorded as “no change”.

Values taken from paper PMC7397744.
